Results taken from US20170296640A1 (IMMATICS BIOTECHNOLOGIES, published 2017).
No end group written: not given here.

Target: T1, HLA-A*02:01 (peptide-receptive MHC class I monomer after UV cleavage of the UV-sensitive ligand) (human)
T1 construct: MHC monomers loaded by UV-ligand exchange and captured on streptavidin plates
Test: UV ligand-exchange ELISA; exchange yield grade (+ >=10%, ++ >=20%, +++ >=50%, ++++ >=75%)
Outline: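 UV-cleavable peptide in HLA monomers exchanged for test peptide by UV irradiation; exchange yield measured by streptavidin-capture ELISA with HRP anti-β2m (TMB, 450 nm) on 100-fold diluted complexes. Quantified against refolded HLA-A*02:01/MLA-001 standards (15-500 ng/ml).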

Row | peptide exchange yield [%] | Binder
1 | 50 to 75 | AQFGAVLEV [AQFGAVLEV (SEQ ID NO: 217)]
2 | 50 to 75 | ALDQFLEGI [ALDQFLEGI (SEQ ID NO: 218)]
3 | 20 to 50 | ALLELENSV [ALLELENSV (SEQ ID NO: 219)]
4 | 20 to 50 | FLAEAPTAL [FLAEAPTAL (SEQ ID NO: 220)]
5 | ≥ 75 | FLAPDNSLLLA [FLAPDNSLLLA (SEQ ID NO: 221)]
6 | 50 to 75 | FLIETGTLL [FLIETGTLL (SEQ ID NO: 222)]
7 | 20 to 50 | FLQDIPDGLFL [FLQDIPDGLFL (SEQ ID NO: 223)]
8 | 20 to 50 | FLSPLLPLL [FLSPLLPLL (SEQ ID NO: 224)]
9 | ≥ 75 | ALVEDIINL [ALVEDIINL (SEQ ID NO: 23)]
10 | 20 to 50 | GVIDPVPEV [GVIDPVPEV (SEQ ID NO: 226)]
11 | 20 to 50 | IIAEGIPEA [IIAEGIPEA (SEQ ID NO: 227)]
12 | 20 to 50 | IIAEYLSYV [IIAEYLSYV (SEQ ID NO: 228)]
13 | ≥ 75 | ILSPWGAEV [ILSPWGAEV (SEQ ID NO: 229)]
14 | 20 to 50 | IMDDDSYGV [IMDDDSYGV (SEQ ID NO: 230)]
15 | 50 to 75 | IVMGAIPSV [IVMGAIPSV (SEQ ID NO: 231)]
16 | 20 to 50 | KVMEGTVAA [KVMEGTVAA (SEQ ID NO: 232)]
17 | 50 to 75 | MLEVHIPSV [MLEVHIPSV (SEQ ID NO: 233)]
18 | 20 to 50 | NLQRTVVTV [NLQRTVVTV (SEQ ID NO: 234)]
19 | 50 to 75 | SLDVYELFL [SLDVYELFL (SEQ ID NO: 235)]
20 | 50 to 75 | AVLGFSFRL [AVLGFSFRL (SEQ ID NO: 24)]
21 | ≥ 75 | SLFDGFFLTA [SLFDGFFLTA (SEQ ID NO: 236)]
22 | 50 to 75 | YLDRLIPQA [YLDRLIPQA (SEQ ID NO: 237)]
23 | 50 to 75 | YQYGAVVTL [YQYGAVVTL (SEQ ID NO: 238)]
24 | 50 to 75 | VLIDDTVLL [VLIDDTVLL (SEQ ID NO: 239)]

Row | peptide exchange yield [%] | Binder
25 | 50 to 75 | ALVPTPALFYL [ALVPTPALFYL (SEQ ID NO: 240)]
26 | 20 to 50 | FIPDFIPAV [FIPDFIPAV (SEQ ID NO: 241)]
27 | ≥ 75 | GILDFXVFL (not fully specified) [GILDFZVFL (SEQ ID NO: 242)]
28 | ≥ 75 | GLPDLDIYL [GLPDLDIYL (SEQ ID NO: 243)]
29 | 50 to 75 | ILEPFLPAV [ILEPFLPAV (SEQ ID NO: 244)]
30 | 50 to 75 | KLIQLPVVYV [KLIQLPVVYV (SEQ ID NO: 245)]
31 | 50 to 75 | FLDTSNQHLL [FLDTSNQHLL (SEQ ID NO: 25)]
32 | 50 to 75 | KLPVPLESV [KLPVPLESV (SEQ ID NO: 246)]
33 | 50 to 75 | KVLEMETTV [KVLEMETTV (SEQ ID NO: 247)]
34 | 50 to 75 | NLLEQFILL [NLLEQFILL (SEQ ID NO: 248)]
35 | ≥ 75 | VLLESLVEI [VLLESLVEI (SEQ ID NO: 249)]
36 | 50 to 75 | VLTNVGAAL [VLTNVGAAL (SEQ ID NO: 250)]
37 | 50 to 75 | VLYELFTYI [VLYELFTYI (SEQ ID NO: 251)]
38 | 50 to 75 | YLGDLIMAL [YLGDLIMAL (SEQ ID NO: 252)]
39 | ≥ 75 | YSDDDVPSV [YSDDDVPSV (SEQ ID NO: 253)]
40 | ≥ 75 | FLYSETWNI [FLYSETWNI (SEQ ID NO: 254)]
41 | ≥ 75 | GMWNPNAPVFL [GMWNPNAPVFL (SEQ ID NO: 255)]
42 | 50 to 75 | FLGSFIDHV [FLGSFIDHV (SEQ ID NO: 26)]
43 | 50 to 75 | ALQETPPQV [ALQETPPQV (SEQ ID NO: 256)]
44 | ≥ 75 | FLQEWEVYA [FLQEWEVYA (SEQ ID NO: 257)]
45 | 50 to 75 | RIYPFLLMV [RIYPFLLMV (SEQ ID NO: 258)]
46 | ≥ 75 | TVLDGLEFKV [TVLDGLEFKV (SEQ ID NO: 259)]
47 | ≥ 75 | RLDEAFDFV [RLDEAFDFV (SEQ ID NO: 260)]
48 | ≥ 75 | FLPETRIMTSV [FLPETRIMTSV (SEQ ID NO: 261)]

Row | peptide exchange yield [%] | Binder
49 | ≥ 75 | LMGPVVHEV [LMGPVVHEV (SEQ ID NO: 262)]
50 | 50 to 75 | GLMDNEIKV [GLMDNEIKV (SEQ ID NO: 263)]
51 | 50 to 75 | ILTGTPPGV [ILTGTPPGV (SEQ ID NO: 264)]
52 | ≥ 75 | ILWHFVASL [ILWHFVASL (SEQ ID NO: 265)]
53 | 50 to 75 | FLNQESFDL [FLNQESFDL (SEQ ID NO: 27)]
54 | ≥ 75 | QLTEMLPSI [QLTEMLPSI (SEQ ID NO: 266)]
55 | 50 to 75 | SLLETGSDLLL [SLLETGSDLLL (SEQ ID NO: 267)]
56 | ≥ 75 | VLFPLPTPL [VLFPLPTPL (SEQ ID NO: 268)]
57 | ≥ 75 | VLQNVAFSV [VLQNVAFSV (SEQ ID NO: 269)]
58 | ≥ 75 | VVVDSDSLAFV [VVVDSDSLAFV (SEQ ID NO: 270)]
59 | ≥ 75 | YLLDQPVLEQRL [YLLDQPVLEQRL (SEQ ID NO: 271)]
60 | 50 to 75 | KLDHTLSQI [KLDHTLSQI (SEQ ID NO: 272)]
61 | 20 to 50 | AILLPQPPK [AILLPQPPK (SEQ ID NO: 273)]
62 | ≥ 75 | KLLNLISKL [KLLNLISKL (SEQ ID NO: 274)]
63 | ≥ 75 | KLMDLEDCAL [KLMDLEDCAL (SEQ ID NO: 275)]
64 | 50 to 75 | FLSNANPSL [FLSNANPSL (SEQ ID NO: 28)]
65 | 20 to 50 | NMISYVVHL [NMISYVVHL (SEQ ID NO: 276)]
66 | 50 to 75 | FLIDLNSTHGTFL [FLIDLNSTHGTFL (SEQ ID NO: 277)]
67 | 50 to 75 | FLLFINHRL [FLLFINHRL (SEQ ID NO: 278)]
68 | 50 to 75 | NLAGENILNPL [NLAGENILNPL (SEQ ID NO: 279)]
69 | ≥ 75 | SLLNHLPYL [SLLNHLPYL (SEQ ID NO: 280)]
70 | ≥ 75 | TLQTVPLTTV [TLQTVPLTTV (SEQ ID NO: 281)]
71 | ≥ 75 | YLLEQGAQV [YLLEQGAQV (SEQ ID NO: 282)]
72 | 50 to 75 | ALMPVTPQA [ALMPVTPQA (SEQ ID NO: 283)]
